Test results reported in a protein production outcome set (Wang et al. 2014).

Experiment: label from the status in PepcDB records

MEEPRRLGGRYELGPVLGRGGMAEVYHAHDTRLGRQVAVKTLRADLARDPSFQARFRREAQSAASLNHPAIVAVYDTGEDYIDNVSIPYIVMEYVDGSTLRELLHSGRKLLPERTLEMTIGILQALEYSHRAGIVHRDIKPANVMLTRNGQVKVMDFGIARAMGDSGMTMTQTAAVIGTAQYLSPEQAKGEQVDARSDLYSTGCLLYELLTVRPPFVGDSPVAVAYQHVREEPQAPSVFDPEITPEMDAIVLKALVKDPDYRYQSADEMRVDIEACLDGQPVGATAAMGAMAAGGYGAYPDDQPTTALRSDGGGGATTMLPPMNPDDGGYGYDERPDRRRQQPRKKNTSTIFLVLAGVLVLVGAILIGKYAFSGDGGPGNDKVPVPAFIGLSKADAQQQADNIDLVLTFKQQECEDQPKGNICAQDPKQGTDVDKESTVNLVVSTGAPKVAVPNVIDKNIDEAKKQLEDKGFEVETKQTESSQDEGTILSQNPDPGKELEKGSTVTLEVAKAEEKATVPDVVGRTCDEAKAQVESGGDLTAVCTDQPTNDPNQVGKVISTTPQSSTQVDPGSKVTIVVGKAVEKTKVPEVRGKTLAEARQILQQSGFTNVQVAQGSPGDDNAKVFASNPQPGSEVDDPAATPITLMTVPGDGGNGNGGNGNGGAIAGLPGFGD
protein production: failed

MKKFQEMCQEEFEKIELMARGGQKIVFDGVHNSYGETVIKLYFQLNDPRSLREIQIERDLNLSMVPKIYETGTIEYEGTETLYIIEQKVKGTELRKVLESGKRFSLEEAVTFLEQGLEFIACIENKGIVHRDIKPENIIRADDGRIFFLDFGIARILGADSLTRTGAMMGPHTPGYAAPEQFNNLKKEIDSRADIFSLGVVTYECITGKNPFREGSINALEVLQKTETITPVQYSIKGDTQSQFMALLGAMMGKYPSRRPRTAKQAIDWLKVAKKTFVYE
protein production: failed

MIRLGKMSDLDQILNLVEEAKELMKEHDNEQWDDQYPLLEHFEEDIAKDYLYVLEENDKIYGFIVVDQDQAEWYDDIDWPVNREGAFVIHRLTGSKEYKGAATELFNYVIDVVKARGAEVILTDTFALNKPAQGLFAKFGFHKVGEQLMEYPPYDKGEPFYAYYKNLKE
protein production: failed

MGLKGFAEGGIASIVAGCSTHPLDLIKVRMQLQGESAPIQTNLRPALAFQTSTTVNAPPLRVGVIGVGSRLIREEGMRALFSGVSATVLRQTLYSTTRMGLYDIIKGEWTDPETKTMPLMKKIGAGAIAGAIGAAVGNPADVAMVRMQADGRLPLTDRRNYKSVLDAITQMIRGEGVTSLWRGSSLTINRAMLVTSSQLASYDSVKETILEKGLLKDGLGTHVSASFAAGFVASVASNPVDVIKTRVMNMKVVAGVAPPYKGAVDCALKTVKAEGIMSLYKGFIPTVSRQAPFTVVLFVTLEQVKKLFKDYDF
protein production: failed

MKSGVIPSSAVGQKINEWYRYIRTFSVPDAEVLKAEIQQELKHMQHDSNLLLYYSLMEFRHQLMLDYLEPLEKLNIEDQPSLSELSRNIDSNQADLKGLLDYYVNFFRGMYEFDKREFISAITYYKQAEKKLSFVADHIERAEFYFKIAEAYYYMKQTYFSLINIKNAYEIYVEQETYNVRIIQCHFVFGVNLMDERNFEQAARHFKLALNMAQAEQKAQLVGRAYYNLGLCYYNQDLLDPAIDYFEKAVSTFESSRIVNSLPQAYFLITLIYYKQGKHDKASEYHKRGYEYAKETDDADYAVKFEFLQSLYLDQPNEEGIERCFQYLKNKNMYADIEDLALEVAKYYYEQKWFKLSASYFLQVEEARKQIQRSEGLYEIEI
protein production: failed

MGLFSKRQIGNQYETLAKQYLQRQGLRFLDQNYLTKFGEIDLIFQQDETIVFVEVKYRKNDHFGSAAEMVTNAKMRKLIKTAQVWLSQQRTMNTIDYRFDVIAIHDSGRDINWIQNAISEG
protein production: failed
